Laboratory results taken from article PMC10208570 (2023).
Where two headings read alike, the source gives them in different places. Bridges are numbered along the chain shown (N, C = ends). Where no end group is shown, it is not given here.

T1: LptAm^Q62L (E. coli) (E. coli (ATCC 25922))
T1 chain: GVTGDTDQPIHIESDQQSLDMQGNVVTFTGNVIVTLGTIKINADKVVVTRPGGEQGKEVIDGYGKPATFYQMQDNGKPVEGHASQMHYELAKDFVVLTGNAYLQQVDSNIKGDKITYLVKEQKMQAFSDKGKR

T2: LptAm (E. coli), monomeric truncated variant of LptA (E. coli (ATCC 25922))
T2 chain: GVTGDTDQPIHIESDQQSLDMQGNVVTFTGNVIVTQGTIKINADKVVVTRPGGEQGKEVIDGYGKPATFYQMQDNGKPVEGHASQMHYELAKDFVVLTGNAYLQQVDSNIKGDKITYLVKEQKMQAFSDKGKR

T3: K. pneumoniae LptAm (K. pneumoniae (ATCC 13883))
T3 chain: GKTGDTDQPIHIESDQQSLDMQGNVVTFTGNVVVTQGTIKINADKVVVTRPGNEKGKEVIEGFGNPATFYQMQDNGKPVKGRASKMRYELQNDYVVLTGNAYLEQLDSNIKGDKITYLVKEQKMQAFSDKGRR


Key:
Assay in all cases: FP
LptAm^Q62L (E. coli) [1] = molecular target: T1, LptAm^Q62L (E. coli)
[2] = molecular target: T2, LptAm (E. coli), monomeric truncated …
LptAm^Q62L (E. coli) [3] = molecular target: T1, LptAm^Q62L (E. coli)
[4] = molecular target: T2, LptAm (E. coli), monomeric truncated …
K. pneumoniae LptAm [5] = molecular target: T3, K. pneumoniae LptAm
LptAm^Q62L (E. coli) [6] = molecular target: T1, LptAm^Q62L (E. coli)
K. pneumoniae LptAm^Q62L = K. pneumoniae LptAm^Q62L (K. pneumoniae (ATCC 13883))
[7] = molecular target: T2, LptAm (E. coli), monomeric truncated …
K. pneumoniae LptAm [8] = molecular target: T3, K. pneumoniae LptAm

Binder	IC50 (LptAm^Q62L (E. coli) [1]) [nM]	IC50 [2] [nM]	IC50 (LptAm^Q62L (E. coli) [3]) [nM]	Ki [4] [nM]	Ki (K. pneumoniae LptAm [5]) [nM]	Ki (LptAm^Q62L (E. coli) [6]) [nM]	IC50 (K. pneumoniae LptAm^Q62L) [nM]	Ki (K. pneumoniae LptAm^Q62L) [nM]	IC50 [7] [nM]	IC50 (K. pneumoniae LptAm [8]) [nM]
GSKKPVPIIYCNRRTGKCQRM [Thanatin]	50	–	–	–	–	–	–	–	–	–
mLptA (E. coli), LptA(25-185) E39V M47A R76A (domain or fragment) GAFAVTGDTDQPIHIVSDQQSLDAQGNVVTFTGNVIVTQGTIKINADKVVVTAPGGEQGKEVIDGYGKPATFYQMQDNGKPVEGHASQMHYELAKDFVVLTGNAYLQQVDSNIKGDKITYLVKEQKMQAFSDKGKRVTTVLVPSQLQDKNNKGQTPAQKKGN	–	213	102	–	–	–	–	–	–	–
KKPVPIIYCNRRTGKCQRM (disulfide 9-16 (inferred)) [peptide 1]	30.4	–	–	1.1	0.9	20.5	20.8	18.2	6.6	9.6
